Experiment: soluble on expression in E. coli; label from the status in PepcDB or PDB records

Sequence | soluble on expression in E. coli
MKSSDRLFTGRSENYSKFRPSYPVGIVKMLTDKYGLKKEMVIADIGCGTGILARMFLENGNKVYCIDPNGEMLKFAKDELSSFGNAIIVRGSAENTGLEDHSVNVISAGQSFHWFDTDKAKVEFRRILTAPYMVVLIWNDRDIDDGFTAEYEKIVSAYGKNYQGTGSTGLPPDTIPQFFNWAYDYYQYQNYQELDLEGLKGRYLSTFYSITQEYPKFQAAMKALETAFNAFSVDGKVRIRYITKVFVGKLNPLEHHHHHH | soluble
MGSDKIHHHHHHMFQWKKLGKVFTPQDINNRPWLKEFAQAPATLVFDDFVRVYFSCRPPVDEHGMYVSYSAWVDLDRNNLFNVLRVSEKPILPLGQSGEFDEFGTYPVSVVRDENIFRAYYAGWTRCESVPFNVAIGMAISDDGDVFRKAGPGPIISYSPEEPFVMSGPKIRRFNGEWQLFYIAGRRWKLVDGRAEPVYKIRMAVSSDGTNWRKINKDLISSRIEEDEAQASPDVFYANGRYHMFFCYRYSEHYRGKKHGYRIGYAWSSDLIDWHRDDEKVGIDVSETGWDSEMISYPHVFELDGKVYMAYLGDQVGRYGFGLAQLEGELR | not soluble
MQFSCSIPLPATFRPGDILAFHRRDRQEIAERVNHASVQKAMIWCGAPAYLSISFEPGLAKASLVIDGKIAEDRQPIFEGMVRRMLGLTQEIEIFEERYRDHPQLGILIAQQPGLRVPVTATPFEALTWAVTGQQISVNAAVSLRRKLIGATNTPHSCGLFCYPDARRILELPEETLRQAGFSTTKTRTLLALSALVADNELPLDAWVETLPVDVIREKLEAVRGIGPWTVNYGLLRGFGWLDGSLHGDAAVRRGLQALLGAQDKISEENTKVWLAQFSPWRALVGAHLWAAPVAIALEHHHHHH | not soluble
MAHHHHHHMAPVIPKSSNEGKDYSVASGSVDTPVLDQLVGYYVNIQSRKMYYKDFLRIEHQAVRWAFADIRKNSEALAHGLLQTGLRPGQRVLAIQPCNCETFVLQLACAKIGALLAVVPHHNISADKLRFYLNEFQPHHLIAREWIVVPEVKQGVLVERNMHFWDMIYNVIPELGLSYPGQRFQWVHSQEFFFLKKVVITDHNMNLLGVTPMRKMLVWGPFSYYEQRLRRLSALLHPDDPILALEDPHPALEDKLHITYSHRNCINAGFLFGNLMGLKAESRFGVMPNHHVDPVGAIVAPYAALTTGAVLVHIHSDMFTDDHAINGIEKLCVEEVVGMLGKKSDFDLLLRHAGNFDADQYEHLKWVVLFEDASEPTVGDEYLQKLAKELGLEDVFVFRGPLESAYMVMWRSLKRARWEMVPHVEAKVVGDRGTADARILAANTRGNLKLKGPHISAGYYNNAGLLTELVDERGFCSTSREAVMDERGQLTLHGTQLY | not soluble
MGHHHHHHSHTGKTTVAVNLAVFNHIDLFDLDVEEPNDRIFIKGEAEEWPAYRKVPEVRENCNACGVCKDVCQYSAIYVIDKAYPLPELCHSCGACIYLCPEKAMEEVDYQTGKIVRVKSDITLTYGEMRIGEASAVFLIKQVKELMGKNAIIDSPPGASCPMVESVSDADYVILVAEPTPFGLHDLKIAAEVVSDLGLKFGVVVNKHGLPFDGIERYCKEGGVEILGKIPFSKEIAEKYSRGELLHDMKDFFVQLYEG | not soluble
MGSDKIHHHHHHMSSKRLVIVGGGITGLAAAYYAERAFPDLNITLLEAGERLGGKVATYREDGFTIERGPDSYVARKHILTDLIEAIGLGEKLVRNNTSQAFILDTGGLHPIPKGAVMGIPTDLDLFRQTTLLTEEEKQEVADLLLHPSDSLRIPEQDIPLGEYLRPRLGDALVEKLIEPLLSGIYAGNIDQMSTFATYPQFVANEQKAGSLFEGMRLMRPLDQLPQTPQTTIKATGQFLSLETGLESLIERLEEVLERSEIRLETPLLAISREDGRYRLKTDHGPEYADYVLLTIPHPQVVQLLPDAHLPELEQLTTHSTATVTMIFDQQQSLPIEGTGFVVNRRAPYSITACTAIDQKWNHSAPDHTVLRAFVGRPGNDHLVHESDEVLQQAVLQDLEKICGRTLEPKQVIISRLMDGLPAYTVGHADRIQRVREEVLAQYPGIYLAGLAYDGVGLPDCVASAKTMIESIELEQSHTDESVNET | not soluble
MFNCLGTSNRDFVEGASGATWIDLVLEGGSCVTVMAPEKPTLDFKVMKMEATELATVRKYCYEATLDTLSTVARCPTTGEAHNTKRSDPTFVCKRDVVDRGWGNGCGLFGKGSIDTCAKFTCKNKATGKTILRENIKYEVAIFVHGSTDSTSHGNYFEQIGKNQAARFTISPQAPSFTANMGEYGTVTIDCEARSGINTEDYYVFTVKEKSWLVNRDWFHDLNLPWTSPATTDWRNRETLVEFEEPHATKQTVVALGSQEGALHTALAGAIPATVSSSTLTLQSGHLKCRAKLDKVKIKGTTYGMCDSAFTFSKNPTDTGHGTVIVELQYTGSNGPCRVPISVTANLMDLTPVGRLVTVNPFISTGGANNKVMIEVEPPFGDSYIVVGRGTTQINYHWHKEGSSIGKA | not soluble
MGSDKIHHHHHHMRIAPLPPLQCLVAFESAVRHASFTKAAAELHLTQSAISRQIAQLEDFLGRSLFVREHRALRLTIAGEGYAKHVQWLLASCSEATLDVMKRYGDMELTIACSSGVAVLWLTPRLGAFRAAHPNVRIRMIVRDGLASLSPAEFDVGLYYIRQRAEPHFTARRLFDEDVYPVCSPGYLAGRVLTPAGLVHETLLVQEDGQRQWMSWSEWFRLNHVQMPASPQAVVVNHYPQLVQMAILGQGVVLGWRHMIDACLSEGLLVRATQASASHGGGYYVVSPNDRSQNQAARLFTRWVFEQAEAQMGRAAS | not soluble
MAHHHHHHMSLAPNTGSVELKAYSAHASLLLARGERIDKRAFDECRLPAIVREERVGGATVAGAGDGSPQSSASSNMTSTYTVLDGKSLAAVMYTDAYGTCIQCTVQGLLGPPRPEQPAAGRLNVHVEAPFVEHLSGGATSTNYRSFQYMIASGNADLPLRQLEGYIGTVLDGCFDLSQLSIYAGEACWVLKVSVLLLSVDGGLRAGSLHAALAALHKLHLPRIRLPNGDVIEGRQVQLSCMPVACTFGFLAGAQVRLVADTTAIEEHVADGLITVVVDEAERILSVHHTGRCPLLAQALTAAAQQWAAASGSMRKALYG | not soluble
MSEEKQTVEQNETEEQEIIEEQAAADEQQEETNESELLQNQINELQGLLEEKENKLLRVQADFENYKRRSRLEMEASQKYRSQNIVTDLLPALDSFERALQVEADNEQTKSLLQGMEMVHRQLVEALKKEGVEAIEAVGQEFDPNLHQAVMQAEDENYGSNIVVEEMQKGYKLKDRVIRPSMVKVNQ | not soluble
KELIMCLSGSILRSATQQYSVGDYIEINGLRGRVVDINLLNTLMMQVGPNPLVGQLAGTTVSFPNSLLLSHPVRRDNILGDYVIHTVEIPVPIHLDSDEAVCRLKAVLEPLCAPYIPAIQRHLENVQAEKLFITPAARPRVTRVPYDDKAYRIIVRFASPVSKRLEIQQAVMDEFLRVQYRLLNHPAGSETL | not soluble
MSFNPDYESVAKAFIQHYYSKFDVGDGMSRAQGLSDLYDPENSYMTFEGQQAKGRDGILQKFTTLGFTKIQRAITVIDSQPLYDGSIQVMVLGQLKTDEDPINPFSQVFILRPNNQGSYFIGNEIFRLDLHNN | not soluble
PEITGQVSLPPGKRTNLRKTGSERIAHGMRVKFNPLPLALLLDSSLEGEFDLVQRIIYEVDDPSLPNDEGITALHNAVCAGHTEIVKFLVQFGVNVNAADSDGWTPLHCAASCNNVQVCKFLVESGAAVFAMTYSDMQTAADKCEEMEEGYTQCSQFLYGVQEKMGIMNKGVIYALWDYEPQNDDELPMKEGDCMTIIHREDEDEIEWWWARLNDKEGYVPRNLLGLYPRIKPRQRSLA | soluble
MALKVIKISRVSPATASVDPLIVPLSFFDLQWLKLNPTEQVFFYKLTESSSSRDVFYSSILPKLERSLSLILTHFRLFTGHLKWDSQDPKPHLVVLSGDTLSLTVAETDADFSRISGRGLRPELELRPLIPELPIYSDSGAVVSLQVTLFPKQGFCIGTTAHHVVLDGKTAEKFNKAWAHTCKHGTIPKILPTVLDRSVVNVPAGLEQKMLELLPYLTEDDKENGRTLKLPPVKEINAKDNVLRITIEISPENIEKLKERAKKESTRAELHLSTFVVTFAHVWTCMVKARSGDPNRPVRFMYAADFRNRLEPPVPVTYFGTCVLAMDFYKYKAKEFMGEDGFVNTVEILSDSVKRLASQGVESTWKVYEEGTKTMKWGTQLLVVNGSNQIGMYETDFGWGRPIHTETMSIYKNDEFSMSKRRDGIGGVEIGISLKKLEMDTFLSLFYKWIGN | soluble
MNSCDFRVFLQEFGTTVHLSLPGSVSEKERLLLKLLMQGMSVTEISQYRNRSAKTISHQKKQLFEKLGIQSDITFWRDIFFQYNPEIISATGSNSHRYINDNHYHHIVTPEAISLALENHEFKPWIQPVFCAQTGVLTGCEVLVRWEHPQTGIIPPDQFIPLAESSGLIVIMTRQLMKQTADILMPVKHLLPDNFHIGINVSAGCFLAAGFEKECLNLVNKLGNDKIKLVLELTERNPIPVTPEARAIFDSLHQHNITFALDDFGTGYATYRYLQAFPVDFIKIDKSFVQMASVDEISGHIVDNIVELARKPGLSIVAEGVETQEQADLMIGKGVHFLQGYLYSPPVPGNKFISEWVMKAGG | soluble
MSLKDRFDRFIDYFTEDEDSSLPYEKRDEPVFTSVNSSQEPALPMNQPSQSAGTKENNITRLHARQQELANQSQRATDKVIIDVRYPRKYEDATEIVDLLAGNESILIDFQYMTEVQARRCLDYLDGACHVLAGNLKKVASTMYLLTPVNVIVNVEDIRLPDEDQQGEFGFDMKRNRVRLEHHHHHH | not soluble
MVENSELRKAGLKVTLPRVKILQMLDSAEQRHMSAEDVYKALMEAGEDVGLATVYRVLTQFEAAGLVVRHNFDGGHAVFELADSGHHDHMVCVDTGEVIEFMDAEIEKRQKEIVRERGFELVDHNLVLYVRKKK | not soluble
SVYTYFSAVAGQDGEVDAEELQRCLTQSGINGTYSPFSLETCRIMIAMLDRDHTGKMGFNAFKELWAALNAWKENFMTVDQDGSGTVEHHELRQAIGLMGYRLSPQTLTTIVKRYSKNGRIFFDDYVACCVKLRALTDFFRKRDHLQQGSANFIYDDFLQGTMAI | soluble
MSLFKSQTAILPEAGPFALYTLLKVRQNHAHVLQALKALPALVEEINQNQPGAELTVSVAFSKGFWSHFEMASPPELIDFPELGEGETHAPSTDVDVLIHCHATRHDLLFYTLRKGISDIAQDIEIVDETYGFRYLDARDMTGFIDGTENPKAEKRAEVALVADGDFAGGSYVMVQRFVHNLPAWNRLNLAAQEKVIGRTKPDSVELENVPAASHVGRVDIKEEGKGLKIVRHSLPYGSVSGDHGLLFIAYCHTLHNFKTMLESMYGVTDGKTDQLLRFTKAVTGAYFFAPSQVMLQELTLKNQEGGSHHHHHH | soluble
MSLYKVLALDLDGTVLSDDHTIHPQVKDAIRAAQQHCHVLIVTGRHHTAARPYYDELGLTTPIICCNGTYVYDYASETVLEHNAIDKQDALTFIDLAQEFQLKLVMYIKDAMTYSQRSPIAYMQALEKWAQAASLTHPPQIYAIDSFHQTARDSEFVWKFVVEGLPSSVERLLEHPWVNAHFNGERSWSNRIDFAAKGNSKGLRLAQYVAQLGYAANHVMAIGDNHNDISMLRYAGHGVAMANADDTVKSYARSLCSTDNNHAGLAQLIREHIQGEGHHHHHH | soluble
TQDMELNVNVNVTFQQNKLLSLSGMYGGENISAPEYKSLASLDGAGFHGGYNHIVYQMVGQPLGVFYLPHCKGLIADGNGGYTYDIADLNGGGVSLEDGEDRYVAGQAVPKTLLGSNISFRYKRFDLSVQVNGAFGHKIYNGTSLTYMNMNIFPDYNVMKKAPGRNIKDQTATDYWLEKGDYINFDYVTVGWNVPVAKWKKYVQSFRLAFTVNNLATITGYSGLSPMINSSTVNSTLGVDDKRAYPLARTYTLGLSINF | not soluble
